Substrate: CN(C)c1ccc(-c2cc[n+](C)cc2)cc1
Experiment: concentration-dependent fluorescent uptake, Lineweaver-Burk; blocked by nomifensine
Format: cell-based, Mus musculus

B1: DA uptake transporter (DAT) (Mus musculus) (protein)
chain: MSKSKCSVGPMSSVVAPAKEPNAVGPREVELILVKEQNGVQLTNSTLINPPQTPVEVQERETWSKKIDFLLSVIGFAVDLANVWRFPYLCYKNGGGAFLVPYLLFMVIAGMPLFYMELALGQFNREGAAGVWKICPVLKGVGFTVILISFYVGFFYNVIIAWALHYFFSSFTMDLPWIHCNNTWNSPNCSDAHSSNSSDGLGLNDTFGTTPAAEYFERGVLHLHQSRGIDDLGPPRWQLTACLVLVIVLLYFSLWKGVKTSGKVVWITATMPYVVLTALLLRGVTLPGAMDGIRAYLSVDFYRLCEASVWIDAATQVCFSLGVGFGVLIAFSSYNKFTNNCYRDAIITTSINSLTSFSSGFVVFSFLGYMAQKHNVPIRDVATDGPGLIFIIYPEAIATLPLSSAWAAVFFLMLLTLGIDSAMGGMESVITGLVDEFQLLHRHRELFTLGIVLATFLLSLFCVTNGGIYVFTLLDHFAAGTSILFGVLIEAIGVAWFYGVQQFSDDIKQMTGQRPNLYWRLCWKLVSPCFLLYVVVVSIVTFRPPHYGAYIFPDWANALGWIIATSSMAMVPIYATYKFCSLPGSFREKLAYAITPEKDRQLVDRGEVRQFTLRHWLLV
notes: native transporter in cultured primary mouse SN and VTA dopaminergic neurons
Km: 16.9 ± 5.5 µM
